Data: paper PMC4914107 (Nucleic Acids Research, 2016)

What was measured:
[1] = target: 2XMBP-BRC1-8-DBD (Homo sapiens, UniProt P51587 993-3418); assay: EMSA
[2] = target: 2XMBP-BRC5-8-DBD (Homo sapiens, UniProt P51587 1596-3418); assay: EMSA
[3] = target: T1, 2XMBP-BRC1-4-DBD (Homo sapiens, UniProt P51587;P51587 993-1589;2153-3418); assay: EMSA
T1 chain 1: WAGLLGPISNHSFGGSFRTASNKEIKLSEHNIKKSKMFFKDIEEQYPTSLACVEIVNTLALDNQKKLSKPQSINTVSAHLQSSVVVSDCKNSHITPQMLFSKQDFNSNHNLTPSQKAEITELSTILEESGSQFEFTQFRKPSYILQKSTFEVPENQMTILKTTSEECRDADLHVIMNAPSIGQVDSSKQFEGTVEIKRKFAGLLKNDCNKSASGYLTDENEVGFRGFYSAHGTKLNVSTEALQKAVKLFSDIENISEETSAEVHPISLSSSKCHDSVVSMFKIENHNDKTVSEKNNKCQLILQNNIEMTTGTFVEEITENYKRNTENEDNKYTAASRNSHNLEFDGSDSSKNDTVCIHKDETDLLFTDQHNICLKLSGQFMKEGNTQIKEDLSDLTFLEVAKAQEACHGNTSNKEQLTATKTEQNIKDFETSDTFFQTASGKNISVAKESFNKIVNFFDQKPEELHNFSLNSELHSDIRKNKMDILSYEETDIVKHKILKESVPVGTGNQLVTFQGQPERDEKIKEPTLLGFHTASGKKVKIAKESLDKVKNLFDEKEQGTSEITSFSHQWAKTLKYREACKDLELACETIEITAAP
T1 chain 2: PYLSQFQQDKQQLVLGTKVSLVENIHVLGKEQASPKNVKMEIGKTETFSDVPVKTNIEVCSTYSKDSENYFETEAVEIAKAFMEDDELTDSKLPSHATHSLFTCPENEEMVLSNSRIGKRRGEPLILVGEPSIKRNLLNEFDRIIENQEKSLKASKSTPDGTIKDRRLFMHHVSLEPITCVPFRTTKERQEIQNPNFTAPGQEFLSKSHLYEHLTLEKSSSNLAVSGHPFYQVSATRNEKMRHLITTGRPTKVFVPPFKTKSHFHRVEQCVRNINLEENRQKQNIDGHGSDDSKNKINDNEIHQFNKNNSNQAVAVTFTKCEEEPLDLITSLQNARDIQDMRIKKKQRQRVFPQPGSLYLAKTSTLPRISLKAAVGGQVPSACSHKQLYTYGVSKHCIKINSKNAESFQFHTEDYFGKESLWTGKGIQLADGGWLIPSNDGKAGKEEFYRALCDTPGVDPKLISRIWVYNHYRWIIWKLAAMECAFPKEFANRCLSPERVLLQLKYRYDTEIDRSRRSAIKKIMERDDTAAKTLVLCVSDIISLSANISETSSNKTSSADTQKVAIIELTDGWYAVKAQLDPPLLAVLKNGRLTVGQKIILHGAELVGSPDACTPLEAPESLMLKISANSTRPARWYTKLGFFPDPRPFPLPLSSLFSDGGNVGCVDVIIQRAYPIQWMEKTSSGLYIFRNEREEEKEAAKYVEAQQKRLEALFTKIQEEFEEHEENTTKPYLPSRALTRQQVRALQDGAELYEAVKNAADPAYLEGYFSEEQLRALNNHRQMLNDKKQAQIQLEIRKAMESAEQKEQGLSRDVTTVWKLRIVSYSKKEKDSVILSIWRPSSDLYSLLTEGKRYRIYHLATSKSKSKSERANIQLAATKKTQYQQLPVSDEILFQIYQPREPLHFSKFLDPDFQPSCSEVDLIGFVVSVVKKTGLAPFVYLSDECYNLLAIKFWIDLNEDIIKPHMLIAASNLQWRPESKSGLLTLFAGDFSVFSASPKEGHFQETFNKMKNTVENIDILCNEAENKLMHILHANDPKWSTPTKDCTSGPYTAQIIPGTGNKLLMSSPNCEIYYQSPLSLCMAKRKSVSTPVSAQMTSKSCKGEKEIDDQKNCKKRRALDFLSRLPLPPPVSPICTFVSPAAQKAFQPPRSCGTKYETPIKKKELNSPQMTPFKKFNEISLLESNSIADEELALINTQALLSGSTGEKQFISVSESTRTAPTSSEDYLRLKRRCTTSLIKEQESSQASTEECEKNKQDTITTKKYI

[4] = target: T2, 2XMBP-BRCA2 DBD (Homo sapiens, UniProt P51587 2153-3418); assay: EMSA
T2 sequence: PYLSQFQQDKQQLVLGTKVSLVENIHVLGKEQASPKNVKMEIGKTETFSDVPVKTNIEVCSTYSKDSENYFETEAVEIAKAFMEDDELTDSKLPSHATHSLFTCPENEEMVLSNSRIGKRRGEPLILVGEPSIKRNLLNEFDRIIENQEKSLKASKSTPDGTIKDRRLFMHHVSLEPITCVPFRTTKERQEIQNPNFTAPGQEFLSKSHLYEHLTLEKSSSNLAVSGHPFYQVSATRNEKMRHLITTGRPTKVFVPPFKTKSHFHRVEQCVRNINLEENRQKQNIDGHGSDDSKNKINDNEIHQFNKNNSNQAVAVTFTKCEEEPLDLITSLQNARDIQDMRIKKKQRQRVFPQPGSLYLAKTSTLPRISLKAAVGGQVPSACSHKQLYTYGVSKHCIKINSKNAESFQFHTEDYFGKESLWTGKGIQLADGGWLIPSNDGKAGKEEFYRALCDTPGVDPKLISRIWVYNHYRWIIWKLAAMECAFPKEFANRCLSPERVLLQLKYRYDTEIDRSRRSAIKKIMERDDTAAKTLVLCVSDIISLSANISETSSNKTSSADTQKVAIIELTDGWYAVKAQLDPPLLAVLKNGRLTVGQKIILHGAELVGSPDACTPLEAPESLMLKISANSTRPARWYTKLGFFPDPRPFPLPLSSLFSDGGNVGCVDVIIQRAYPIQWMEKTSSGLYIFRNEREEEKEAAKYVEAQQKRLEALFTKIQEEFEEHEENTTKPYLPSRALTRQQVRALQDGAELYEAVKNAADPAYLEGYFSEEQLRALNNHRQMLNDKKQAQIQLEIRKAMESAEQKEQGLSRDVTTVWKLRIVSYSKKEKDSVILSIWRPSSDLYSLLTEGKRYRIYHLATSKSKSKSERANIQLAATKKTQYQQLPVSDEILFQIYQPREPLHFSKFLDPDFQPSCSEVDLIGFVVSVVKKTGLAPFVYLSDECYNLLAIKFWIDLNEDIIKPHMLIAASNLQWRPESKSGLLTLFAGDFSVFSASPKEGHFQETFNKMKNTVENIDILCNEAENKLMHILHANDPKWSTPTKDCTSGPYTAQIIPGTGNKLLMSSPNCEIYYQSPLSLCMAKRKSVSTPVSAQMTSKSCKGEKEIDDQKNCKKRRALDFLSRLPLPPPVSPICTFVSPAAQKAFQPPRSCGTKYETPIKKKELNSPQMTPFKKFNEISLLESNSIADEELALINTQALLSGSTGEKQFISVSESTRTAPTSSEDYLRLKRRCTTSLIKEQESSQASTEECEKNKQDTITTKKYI

[5] = target: T3, 2XMBP-BRC4-DBD (Homo sapiens, UniProt P51587;P51587 1496-1589;2153-3418); assay: EMSA
T3 chain 1: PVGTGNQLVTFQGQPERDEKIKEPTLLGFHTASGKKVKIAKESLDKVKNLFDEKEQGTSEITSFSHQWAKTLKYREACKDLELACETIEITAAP
T3 chain 2: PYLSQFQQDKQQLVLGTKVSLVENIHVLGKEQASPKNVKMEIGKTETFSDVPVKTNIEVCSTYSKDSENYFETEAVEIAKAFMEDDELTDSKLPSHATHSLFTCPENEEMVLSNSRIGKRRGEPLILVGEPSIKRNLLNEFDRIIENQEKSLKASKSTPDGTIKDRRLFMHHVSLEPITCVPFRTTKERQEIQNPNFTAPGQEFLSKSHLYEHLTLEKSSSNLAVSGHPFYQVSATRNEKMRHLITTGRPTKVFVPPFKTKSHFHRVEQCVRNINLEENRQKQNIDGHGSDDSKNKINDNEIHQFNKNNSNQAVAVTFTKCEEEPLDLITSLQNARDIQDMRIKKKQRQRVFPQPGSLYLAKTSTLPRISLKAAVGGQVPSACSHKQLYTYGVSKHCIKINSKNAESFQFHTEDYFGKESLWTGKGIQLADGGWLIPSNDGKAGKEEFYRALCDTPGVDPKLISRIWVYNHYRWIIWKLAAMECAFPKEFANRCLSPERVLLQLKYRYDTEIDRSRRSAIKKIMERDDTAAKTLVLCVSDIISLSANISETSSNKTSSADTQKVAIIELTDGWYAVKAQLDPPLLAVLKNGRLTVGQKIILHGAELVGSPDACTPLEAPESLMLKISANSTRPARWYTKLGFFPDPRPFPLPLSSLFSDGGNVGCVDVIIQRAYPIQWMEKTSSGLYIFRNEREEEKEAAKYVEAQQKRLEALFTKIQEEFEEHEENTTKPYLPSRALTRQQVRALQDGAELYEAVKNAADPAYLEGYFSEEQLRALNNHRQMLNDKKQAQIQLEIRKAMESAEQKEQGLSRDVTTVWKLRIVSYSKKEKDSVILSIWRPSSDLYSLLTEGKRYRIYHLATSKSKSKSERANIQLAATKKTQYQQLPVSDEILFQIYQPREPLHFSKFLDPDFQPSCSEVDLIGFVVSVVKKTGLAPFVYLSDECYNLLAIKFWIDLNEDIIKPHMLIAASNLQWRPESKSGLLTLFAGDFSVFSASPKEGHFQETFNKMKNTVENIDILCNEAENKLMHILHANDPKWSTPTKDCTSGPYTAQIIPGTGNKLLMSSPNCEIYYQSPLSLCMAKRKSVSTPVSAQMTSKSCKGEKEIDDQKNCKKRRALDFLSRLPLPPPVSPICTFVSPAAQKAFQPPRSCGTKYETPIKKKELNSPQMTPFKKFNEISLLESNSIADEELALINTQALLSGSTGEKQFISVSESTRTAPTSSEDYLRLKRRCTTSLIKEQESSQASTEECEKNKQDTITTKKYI

[6] = target: RAD51;2XMBP-BRC1-4-DBD (Homo sapiens;Homo sapiens, UniProt Q06609;P51587;P51587 1-339;993-1589;2153-3418, |); assay: pull-down
RAD51;2XMBP-BRC1-4-DBD, sequence (Q06609 whole entry, one chain of several): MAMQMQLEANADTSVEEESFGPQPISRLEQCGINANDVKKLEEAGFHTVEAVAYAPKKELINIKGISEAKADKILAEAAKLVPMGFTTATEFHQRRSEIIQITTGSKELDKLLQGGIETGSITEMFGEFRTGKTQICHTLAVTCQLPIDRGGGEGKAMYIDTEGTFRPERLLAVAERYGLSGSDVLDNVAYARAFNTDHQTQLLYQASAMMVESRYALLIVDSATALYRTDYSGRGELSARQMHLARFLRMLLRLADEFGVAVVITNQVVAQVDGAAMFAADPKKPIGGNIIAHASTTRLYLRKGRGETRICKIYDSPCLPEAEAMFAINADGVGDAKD

[7] = target: RAD51;2XMBP-BRC1-8-DBD (Homo sapiens;Homo sapiens, UniProt Q06609;P51587 1-339;993-3418, |); assay: pull-down
RAD51;2XMBP-BRC1-8-DBD, sequence (Q06609 whole entry, one chain of several): as above

[8] = target: T2, 2XMBP-BRCA2 DBD; assay: pull-down
[9] = target: RAD51;2XMBP-BRC5-8-DBD (Homo sapiens;Homo sapiens, UniProt Q06609;P51587 1-339;1596-3418, |); assay: pull-down
RAD51;2XMBP-BRC5-8-DBD, sequence (Q06609 whole entry, one chain of several): as above

Measured: binding result

B1: 3' tail DNA (RJ-167-mer / RJ-PHIX-42-1) (mixed)
DNA 1: CTGCTTTATCAAGATAATTTTTCGACTCATCAGAAATATCCGTTTCCTATATTTATTCCTATTATGTTTTATTCATTTACTTATTCTTTATGTTCATTTTTTATATCCTTTACTTTATTTTCTCTGTTTATTCATTTACTTATTTTGTATTATCCTTATCTTATTTA
DNA 2: CGGATATTTCTGATGAGTCGAAAAATTATCTTGATAAAGCAG
binds: [1] | [2] | [3] | [4] | [5]

B2: biotinylated ssDNA RJ-167-mer (ssDNA)
DNA: CTGCTTTATCAAGATAATTTTTCGACTCATCAGAAATATCCGTTTCCTATATTTATTCCTATTATGTTTTATTCATTTACTTATTCTTTATGTTCATTTTTTATATCCTTTACTTTATTTTCTCTGTTTATTCATTTACTTATTTTGTATTATCCTTATCTTATTTA
binds: [6] | [7] | [8] | [9]
